The values below come from publication PMC6723090.

The target in this assay is synthetic CDR1 peptide … with N-terminal Biotin-[TTDS] linker (human). As to the kind of experiment: affinity purification with mass spectrometry; spike-in: 2 ug recombinant HTRA2 added to 5 mg homogenized pig retina; beads with CDR peptide, scrambled peptide or biotin only (n = 3); eluates on 1-D SDS-PAGE, gel region above 49 kDa digested with trypsin, LC-MS/MS intensity of HTRA2.

With “recombinant HTRA2/Omi (Human Serine Protease, cat. no. C760) (from UniProt O43464 32-458) (enzyme)”, the LC-MS intensity of recovered HTRA2 was 4.2e+08.
